This is an account of results in paper PMC9486808 (ACS Chemical Biology, 2022).

Sequences and labels used below:
B1: Fluorescein-labeled macrocyclic peptide S3 (peptide)
chain: YLKIYWSKIHGLVSEWC
modifications: thioether (positions not given here); not fully specified (N-terminus, bridges); also: fluorescein (FAM) label, position not given here
B2: Fluorescein-labeled macrocyclic peptide L4 (peptide)
chain: YRWVWTSFFSEPYFVVC
modifications: thioether (positions not given here); not fully specified (N-terminus, bridges); also: fluorescein (FAM) label, position not given here
B3: Fluorescein-labeled macrocyclic peptide S5 (peptide)
chain: YVLFRWDHGTLATHWVC
modifications: thioether (positions not given here); not fully specified (N-terminus, bridges); also: fluorescein (FAM) label, position not given here
B4: Fluorescein-labeled macrocyclic peptide L2 (peptide)
chain: YWHKNKYVLTYSCLFAA
modifications: thioether (positions not given here); not fully specified (N-terminus, bridges); also: fluorescein (FAM) label, position not given here

No end group written: not given here.

In the assay the target is Recombinant soluble trimeric H1 HA ectodomain of A/California/04/2009 (H1N1) (Influenza A virus A/California/04/2009 …). In words: fluorescence polarisation. The settings on record: both partners purified. In general terms: In fluorescence polarisation assays a small probe gives low polarisation when free and higher when bound to something large.
Consider B1, for which the dissociation constant Kd (in general, the constant that tells how readily two partners part at equilibrium) was not above 1 nM.
The value for B2 was not above 1 nM; that for B3 was not above 1 nM.
The figure for B4 is 2.4 nM.
